From paper PMC5358978 (2017)

Biological target: human CRM1 (HsCRM1), wild type (human, UniProt O14980 1-1071)
Assay: direct titration, PKI WT set

Sequence of human CRM1 (HsCRM1), wild type (O14980 whole entry): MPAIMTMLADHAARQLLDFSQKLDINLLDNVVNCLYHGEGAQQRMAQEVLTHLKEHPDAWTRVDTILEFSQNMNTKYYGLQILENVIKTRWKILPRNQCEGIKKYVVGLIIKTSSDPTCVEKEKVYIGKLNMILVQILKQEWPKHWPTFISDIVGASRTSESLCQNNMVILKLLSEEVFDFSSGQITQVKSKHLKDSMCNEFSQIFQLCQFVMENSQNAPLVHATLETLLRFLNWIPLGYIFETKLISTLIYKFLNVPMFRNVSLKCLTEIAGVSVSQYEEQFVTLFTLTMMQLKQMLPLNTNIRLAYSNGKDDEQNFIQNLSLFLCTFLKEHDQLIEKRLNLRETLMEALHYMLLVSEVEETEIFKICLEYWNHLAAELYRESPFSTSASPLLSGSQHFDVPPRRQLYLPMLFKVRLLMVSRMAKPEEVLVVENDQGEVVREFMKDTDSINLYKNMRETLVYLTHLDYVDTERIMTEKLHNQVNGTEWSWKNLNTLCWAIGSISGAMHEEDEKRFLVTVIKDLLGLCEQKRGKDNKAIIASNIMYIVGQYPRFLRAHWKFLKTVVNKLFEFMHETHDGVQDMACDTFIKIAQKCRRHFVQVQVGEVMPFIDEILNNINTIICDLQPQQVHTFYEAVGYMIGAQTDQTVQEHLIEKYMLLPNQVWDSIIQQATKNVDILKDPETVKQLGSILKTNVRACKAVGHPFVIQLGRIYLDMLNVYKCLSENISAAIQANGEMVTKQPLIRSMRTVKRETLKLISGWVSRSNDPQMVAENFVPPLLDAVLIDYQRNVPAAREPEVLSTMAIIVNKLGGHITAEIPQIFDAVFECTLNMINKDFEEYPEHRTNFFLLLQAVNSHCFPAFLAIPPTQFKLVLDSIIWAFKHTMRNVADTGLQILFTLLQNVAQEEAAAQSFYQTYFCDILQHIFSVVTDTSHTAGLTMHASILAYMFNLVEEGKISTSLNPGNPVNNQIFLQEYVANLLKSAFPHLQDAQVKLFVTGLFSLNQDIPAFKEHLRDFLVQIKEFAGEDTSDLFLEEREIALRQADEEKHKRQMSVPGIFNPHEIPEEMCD

NSNELALKLAGLDINKT (FITC label (FITC-PKI^NES)) [FITC-PKI NES (NES of Protein Kinase A Inhibitor, wild type)]
Kd: 29 nM
